Where two headings read alike, the source gives them in different places.
What was measured:
[1] = system: HT1080 tumor bearing mice; set-up: species or system mouse (Balb/c nu-nu); settings: mouse, in vivo, iv; for Radioactivity biodistribution, Blood / Radioactivity biodistribution, Heart / Radioactivity biodistribution, Intestine / Radioactivity biodistribution, Kidneys / Radioactivity biodistribution, Liver / Radioactivity biodistribution, Lung / Radioactivity biodistribution, Muscle / Radioactivity biodistribution, Pancreas / Radioactivity biodistribution, Spleen / Radioactivity biodistribution, Stomach / Radioactivity biodistribution, Tumor / T/B (tumor to blood ratio): 37 kBq
Procedure: Female Balb/c nu-nu mice (5 weeks old, Japan SLC, Inc., Shizuoka, Japan) were housed under a 12-h light/12-h dark cycle and given free access to food and water. HT1080 cells (5×10^6 cells/100 μl PBS (-)/mouse) were subcutaneously inoculated into the right hind leg of Balb/c nu-nu mice. Animals were used for experiments two weeks after inoculation when the mean tumor size was 5.7±2.2 mm along the major axis. […]3000 and […] (37 kBq, 100 μl in PBS including 3% bovine serum albumin and 0.1% Tween 80) were injected intravenously into the tail vein of tumor bearing mice. The mice were sacrificed at various post-injection time points (n = 3 for each time point), and the organs of interest including the tumor tissues were collected for determination of the weights. The radioactivity of each sample was measured with a NaI well-type scintillation counter. From fitting to the two phase decay curves for blood radioactivity data analyzed by GraphPad Prism 6 (GraphPad Software, San Diego, CA), whole body pharmacokinetic parameters such as blood half-lives, distribution volume, mean residence time and total clearance were calculated for each of the probes and the values compared. Simple pharmacokinetic analysis using a single tissue compartment model was applied to the biodistribution data to calculate rate constants (K1 and k2) for radioactivity transfer from blood to tumor and clearance from tumor to blood by PMOD version 3.2. In addition, MDAP3000 (7.4 MBq in 200 μl) was injected intravenously into the tail vein of tumor bearing mice for metabolite analysis in tumors excised 3, 6, and 24 hr post injection (n = 2 each). Tumor homogenates were prepared on ice and insoluble material was removed by centrifugation after methanol treatment. The resulting supernatant was analyzed by RP-HPLC.

[2] = target: T1, Human-recombinant MMP-2 protein (Homo sapiens, UniProt P08253); assay: Cleavage assay; format: biochemical; settings: activated MMP-2 1–5 nM, 370 kBq probe, 37°C, 2 hr, pH 7.5 assay buffer, RP-HPLC, Fig. 3b
T1 construct: purchased R & D Systems, Inc. 902-MP-010
T1 sequence (P08253 110-660): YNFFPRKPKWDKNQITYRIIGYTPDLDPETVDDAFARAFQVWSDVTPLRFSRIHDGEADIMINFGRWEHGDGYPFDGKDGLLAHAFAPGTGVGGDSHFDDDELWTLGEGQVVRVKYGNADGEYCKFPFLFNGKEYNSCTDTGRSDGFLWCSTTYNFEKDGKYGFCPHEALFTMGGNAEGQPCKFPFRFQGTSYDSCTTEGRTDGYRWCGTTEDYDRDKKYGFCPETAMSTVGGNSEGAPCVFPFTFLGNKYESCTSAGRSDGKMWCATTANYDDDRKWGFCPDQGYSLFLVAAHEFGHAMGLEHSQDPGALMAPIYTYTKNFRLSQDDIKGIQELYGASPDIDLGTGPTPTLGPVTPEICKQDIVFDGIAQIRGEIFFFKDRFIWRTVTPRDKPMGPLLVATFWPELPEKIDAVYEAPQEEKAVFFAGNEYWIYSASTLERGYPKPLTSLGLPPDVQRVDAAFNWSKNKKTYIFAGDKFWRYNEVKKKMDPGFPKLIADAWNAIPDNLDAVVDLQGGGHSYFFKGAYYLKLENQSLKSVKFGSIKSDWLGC
Procedure: Human-recombinant MMP-2 protein (902-MP-010, R & D Systems, Inc., Minneapolis, MN USA) was activated with p-aminophenylmercuric acetate (1 mM) in assay buffer (50 mM Tris-HCl, 150 mM NaCl, 10 mM CaCl2, 5 µM ZnCl2, 0.02% Brij 35, pH 7.5). MDAP1000, MDAP3000, and MDAP5000 (370 kBq) were incubated at 37°C for 2 hr with activated MMP-2 (1–5 nM) and a MMP inhibitor (0 or 100 µM, GM6001, Merck KGaA, Darmstadt, Germany). The reaction was quenched by addition of methanol, and the percentage of cleaved peptide was estimated by RP-HPLC.

[3] = system: HT1080 human fibrosarcoma cells; assay: Cellular uptake study; format: cell-based; settings: 5×10^5 HT1080 cells, FBS-free DMEM, 37 kBq probe, 30 min incubation, radioactivity counting, Fig. 3a
Procedure: HT1080 human fibrosarcoma cells were purchased from American Type Culture Collection (ATCC, Manassas, VA USA) and cultured in DMEM with low glucose (Invitrogen), 10% fetal bovine serum (FBS), and penicillin/streptomycin. MMP-2 cDNA was cloned into the pENTR vector (Invitrogen) and inserted into the pLenti6 vector (Invitrogen) as previously described, [7]. […] Protein quantitation was performed by BCA protein assay (Thermo Fisher Scientific, Inc. Rockford, IL USA). The cellular uptake study of MDAP3000 pretreated with activated MMP-2 (63 nM) in the presence or absence of GM6001 (100 µM) was performed as described above.

Palmitoyl-Dap(p-SCN-Bn-DTPA-^111In)-10-Adc-Gly-Pro-Leu-Gly-Val-Arg-Gly-Lys(ivDde)-PEG1000 [MDAP1000]
Blood clearance (in words) [1]: rapid blood clearance | Tumor accumulation (in words) [1]: low tumor accumulation | Radioactivity biodistribution, Blood ([1]; 0.25 h): 46.93±5.71 % injected dose per gram | Radioactivity biodistribution, Heart ([1]; 0.25 h): 9.40±2.03 % injected dose per gram | Radioactivity biodistribution, Intestine ([1]; 0.25 h): 4.18±0.58 % injected dose per gram | Radioactivity biodistribution, Kidneys ([1]; 0.25 h): 14.24±1.90 % injected dose per gram | Radioactivity biodistribution, Liver ([1]; 0.25 h): 34.27±5.87 % injected dose per gram | Radioactivity biodistribution, Lung ([1]; 0.25 h): 21.23±2.65 % injected dose per gram | Radioactivity biodistribution, Muscle ([1]; 0.25 h): 2.15±0.57 % injected dose per gram | Radioactivity biodistribution, Pancreas ([1]; 0.25 h): 4.28±0.41 % injected dose per gram | Radioactivity biodistribution, Spleen ([1]; 0.25 h): 8.06±0.23 % injected dose per gram | Radioactivity biodistribution, Stomach ([1]; 0.25 h): 1.03±0.15 % injected dose per organ | Radioactivity biodistribution, Tumor ([1]; 0.25 h): 1.70±0.85 % injected dose per gram | T/B (tumor to blood ratio) ([1]; 0.25 h): 0.04±0.01 | Radioactivity biodistribution, Blood ([1]; 1 h): 24.81±3.60 % injected dose per gram | Radioactivity biodistribution, Heart ([1]; 1 h): 8.43±1.19 % injected dose per gram | Radioactivity biodistribution, Intestine ([1]; 1 h): 8.97±0.28 % injected dose per gram | Radioactivity biodistribution, Kidneys ([1]; 1 h): 11.66±1.17 % injected dose per gram | Radioactivity biodistribution, Liver ([1]; 1 h): 42.27±8.44 % injected dose per gram | Radioactivity biodistribution, Lung ([1]; 1 h): 12.56±1.70 % injected dose per gram | Radioactivity biodistribution, Muscle ([1]; 1 h): 1.94±0.33 % injected dose per gram | Radioactivity biodistribution, Pancreas ([1]; 1 h): 5.52±1.05 % injected dose per gram | Radioactivity biodistribution, Spleen ([1]; 1 h): 7.72±1.86 % injected dose per gram | Radioactivity biodistribution, Stomach ([1]; 1 h): 1.13±0.21 % injected dose per organ | Radioactivity biodistribution, Tumor ([1]; 1 h): 1.90±0.38 % injected dose per gram | T/B (tumor to blood ratio) ([1]; 1 h): 0.08±0.02 | Radioactivity biodistribution, Blood ([1]; 3 h): 10.58±1.28 % injected dose per gram | Radioactivity biodistribution, Heart ([1]; 3 h): 7.47±0.45 % injected dose per gram | Radioactivity biodistribution, Intestine ([1]; 3 h): 20.39±4.51 % injected dose per gram | Radioactivity biodistribution, Kidneys ([1]; 3 h): 10.56±1.49 % injected dose per gram | Radioactivity biodistribution, Liver ([1]; 3 h): 50.70±7.52 % injected dose per gram | Radioactivity biodistribution, Lung ([1]; 3 h): 6.17±0.88 % injected dose per gram | Radioactivity biodistribution, Muscle ([1]; 3 h): 2.00±0.38 % injected dose per gram | Radioactivity biodistribution, Pancreas ([1]; 3 h): 4.50±1.45 % injected dose per gram | Radioactivity biodistribution, Spleen ([1]; 3 h): 10.01±3.77 % injected dose per gram | Radioactivity biodistribution, Stomach ([1]; 3 h): 1.14±0.33 % injected dose per organ | Radioactivity biodistribution, Tumor ([1]; 3 h): 2.65±0.33 % injected dose per gram | T/B (tumor to blood ratio) ([1]; 3 h): 0.25±0.05 | Radioactivity biodistribution, Blood ([1]; 6 h): 5.85±0.74 % injected dose per gram | Radioactivity biodistribution, Heart ([1]; 6 h): 5.71±0.61 % injected dose per gram | Radioactivity biodistribution, Intestine ([1]; 6 h): 13.23±3.92 % injected dose per gram | Radioactivity biodistribution, Kidneys ([1]; 6 h): 9.53±1.08 % injected dose per gram | Radioactivity biodistribution, Liver ([1]; 6 h): 30.08±5.98 % injected dose per gram | Radioactivity biodistribution, Lung ([1]; 6 h): 4.38±0.32 % injected dose per gram | Radioactivity biodistribution, Muscle ([1]; 6 h): 1.68±0.46 % injected dose per gram | Radioactivity biodistribution, Pancreas ([1]; 6 h): 5.53±1.77 % injected dose per gram | Radioactivity biodistribution, Spleen ([1]; 6 h): 10.00±2.61 % injected dose per gram | Radioactivity biodistribution, Stomach ([1]; 6 h): 0.73±0.06 % injected dose per organ | Radioactivity biodistribution, Tumor ([1]; 6 h): 3.18±0.69 % injected dose per gram | T/B (tumor to blood ratio) ([1]; 6 h): 0.55±0.15 | Radioactivity biodistribution, Blood ([1]; 24 h): 5.26±0.94 % injected dose per gram | Radioactivity biodistribution, Heart ([1]; 24 h): 4.11±0.44 % injected dose per gram | Radioactivity biodistribution, Intestine ([1]; 24 h): 4.90±0.90 % injected dose per gram | Radioactivity biodistribution, Kidneys ([1]; 24 h): 7.01±0.45 % injected dose per gram | Radioactivity biodistribution, Liver ([1]; 24 h): 8.89±1.11 % injected dose per gram | Radioactivity biodistribution, Lung ([1]; 24 h): 2.63±0.28 % injected dose per gram | Radioactivity biodistribution, Muscle ([1]; 24 h): 1.55±0.13 % injected dose per gram | Radioactivity biodistribution, Pancreas ([1]; 24 h): 6.21±3.76 % injected dose per gram | Radioactivity biodistribution, Spleen ([1]; 24 h): 4.82±1.10 % injected dose per gram | Radioactivity biodistribution, Stomach ([1]; 24 h): 0.49±0.09 % injected dose per organ | Radioactivity biodistribution, Tumor ([1]; 24 h): 3.33±0.44 % injected dose per gram | T/B (tumor to blood ratio) ([1]; 24 h): 0.65±0.15 | Cleavage by MMP-2 [2]: concentration-dependent manner | Cellular accumulation (radioactivity in tumor cells) [3]: high radioactivity accumulation

Reference: publication PMC4092090, “Investigation of a MMP-2 Activity-Dependent Anchoring Probe for Nuclear Imaging of Cancer” (PLoS ONE, 2014)
